Data on three molecules can be found in doi:10.1101/525485 (bioRxiv, 2019).

The series “native gel or EMSA” deals with the molecule itself. In words: native gel or EMSA. (A gel shift assay detects complexes by their altered migration in electrophoresis.)
For another series, the target named is human PCNA, purified (human, UniProt P12004 1-261). Description: ITC. A general note: ITC needs no label: the signal is the heat of the interaction.
The series “cross-linking” concerns the molecule itself. Description: cross-linking.
The series “ITC” concerns the molecule itself. Description: ITC.

human PCNA, purified, sequence (P12004 whole entry): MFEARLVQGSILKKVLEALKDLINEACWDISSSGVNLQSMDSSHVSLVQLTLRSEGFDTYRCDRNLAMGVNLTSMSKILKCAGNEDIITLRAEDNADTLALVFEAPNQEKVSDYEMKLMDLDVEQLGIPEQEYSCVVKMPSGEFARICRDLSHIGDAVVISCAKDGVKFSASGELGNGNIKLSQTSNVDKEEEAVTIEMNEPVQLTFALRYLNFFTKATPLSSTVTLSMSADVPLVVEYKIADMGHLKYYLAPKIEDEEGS

B1: Cdm1, fourth subunit of S. pombe DNA polymerase delta, purified (natural protein)
chain: MKKRTTQAKKSGQNTNIRDVFPHVVRSNSSQSHIGKKVSSEQSPTPDVTITTKTLDERIKEDDELSKEVEEAWNQIMAERISEPIHCENITKVEFILHHFDTTARYGPYLGMTRMQRWKRAKNFNLNPPETVGKILMLEEADEENRKRESLFYDLQTIPG
For the molecule B1, the binding result in “native gel or EMSA” is listed as “binds”.

B2: p12 subunit of human DNA polymerase delta, purified, GST tag cleaved off (natural protein)
chain: MGRKRLITDSYPVVKRREGPAGHSKGELAPELGEEPQPRDEEEAELELLRQFDLAWQYGPCTGITRLQRWCRAKQMGLEPPPEVWQVLKTHPGDPRFQCSLWHLYPL
The term Kd denotes the free concentration of one partner at which half of the binding sites on the other are occupied at equilibrium, for simple one-to-one binding. High values mean weaker binding, low ones tighter binding. As a reminder, the stoichiometry N is a count of units in the complex or per binding partner. B2 had a Kd with human PCNA, purified of 10 µM. In addition, the “stoichiometry N” value in the series “cross-linking” worked out at 2. In the series “ITC”, the Kd is ~0.146 µM, the dH was ~-1.82 kcal/mol and the “stoichiometry N” value is ~0.6.

B3: p12 L104A, Y105A mutant, purified (natural protein)
chain: MGRKRLITDSYPVVKRREGPAGHSKGELAPELGEEPQPRDEEEAELELLRQFDLAWQYGPCTGITRLQRWCRAKQMGLEPPPEVWQVLKTHPGDPRFQCSLWHAAPL
For the molecule B3, in “cross-linking”, the “stoichiometry N” value was 2.
